Numbering of substitutions follows the chain as printed.

The series concerns the target interferon-gamma (IFN-γ) (Homo sapiens, UniProt P01579 24-161). The experiment in a line: BLI; PBS pH 7.4, 25 °C; BLI on SA sensors with 500 nM biotinylated aptamer loaded, IFN-γ 125-2000 nM; fluorescence assay in PBS, 250 nM M5-5, MB 1:3, 30 min at 25 °C. As to conditions: protein: commercial; chain copies: 2; label: biotin (BLI).

Chain of interferon-gamma (IFN-γ) (P01579 24-161): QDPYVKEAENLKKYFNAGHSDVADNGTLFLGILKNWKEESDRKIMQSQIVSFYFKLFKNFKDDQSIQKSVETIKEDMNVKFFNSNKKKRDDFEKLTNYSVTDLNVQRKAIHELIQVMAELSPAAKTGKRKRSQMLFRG

B1: B1-4 (ssDNA)
DNA: CCGCCCAAATCCCTAAGAGAAGACTGTAATGACATCAAACCAGACACACTACACACGCA
Molecule B1 displayed a Kd of 914 nM.

B2: M1-8 (ssDNA)
DNA: B1 DNA with A18G
B2 had a Kd of 440 nM.

B3: M5-5 (ssDNA)
DNA: B1 DNA with T14G, A18G, C24G, A34G, C49T
The molecule B3 registered a dissociation constant Kd of 106 nM.

B4: M4-10 (ssDNA)
DNA: B1 DNA with A18T, T27G, A29T, A44T
Molecule B4 yielded a Kd of 277 nM.

B5: M3-6 (ssDNA)
DNA: B1 DNA with A18T, T27G, A44T
As for B5, the Kd was found to be 267 nM.

B6: M2-6 (ssDNA)
DNA: B1 DNA with A18G, C49T
As to B6, binding was characterised by a dissociation constant (Kd) of 482 nM.

As a reminder, the Kd is the constant that tells how readily two partners part at equilibrium. A low value points to a tighter complex.

These data come from publication PMC9457990, “Evolution of Interferon-Gamma Aptamer with Good Affinity and Analytical Utility by a Rational In Silico Base Mutagenesis Post-SELEX Strategy”.
